Source: patent US20260056186A1 (JIANGSU HENGRUI PHARMACEUTICALS, published 2026)

B1: TACI-9-1-Fc (Fc fusion)
chain: STSCRKEQGKFYDHLLRDCISCASICGQHPKQCAYFCENKLDKTHTCPPCPAPEAEGAPSVFLFPPKPKDTLMISRTPEVTCVVVDVSHEDPEVKFNWYVDGVEVHNAKTKPREEQYNSTYRVVSVLTVLHQDWLNGKEYKCKVSNKALPSSIEKTISKAKGQPREPQVYTLPPSRDELTKNQVSLTCLVKGFYPSDIAVEWESNGQPENNYKTTPPVLDSDGSFFLYSKLTVDKSRWQQGNVFSCSVMHEALHNHYTQKSLSLSPGK
B2: TACI-9-2-Fc (Fc fusion)
chain: SLSCSKEQGKFYDHLLRDCISCASICGQHPKQCAYFCENKLDKTHTCPPCPAPEAEGAPSVFLFPPKPKDTLMISRTPEVTCVVVDVSHEDPEVKFNWYVDGVEVHNAKTKPREEQYNSTYRVVSVLTVLHQDWLNGKEYKCKVSNKALPSSIEKTISKAKGQPREPQVYTLPPSRDELTKNQVSLTCLVKGFYPSDIAVEWESNGQPENNYKTTPPVLDSDGSFFLYSKLTVDKSRWQQGNVFSCSVMHEALHNHYTQKSLSLSPGK
B3: TACI-9-3-Fc (Fc fusion)
chain: SLSCREEQGKFYDHLLRDCISCASICGQHPKQCAYFCENKLDKTHTCPPCPAPEAEGAPSVFLFPPKPKDTLMISRTPEVTCVVVDVSHEDPEVKFNWYVDGVEVHNAKTKPREEQYNSTYRVVSVLTVLHQDWLNGKEYKCKVSNKALPSSIEKTISKAKGQPREPQVYTLPPSRDELTKNQVSLTCLVKGFYPSDIAVEWESNGQPENNYKTTPPVLDSDGSFFLYSKLTVDKSRWQQGNVFSCSVMHEALHNHYTQKSLSLSPGK
B4: TACI-9-10-Fc (Fc fusion)
chain: SLSCREEQGEFYDHLLRDCISCASICGQHPKQCAYFCENKLDKTHTCPPCPAPEAEGAPSVFLFPPKPKDTLMISRTPEVTCVVVDVSHEDPEVKFNWYVDGVEVHNAKTKPREEQYNSTYRVVSVLTVLHQDWLNGKEYKCKVSNKALPSSIEKTISKAKGQPREPQVYTLPPSRDELTKNQVSLTCLVKGFYPSDIAVEWESNGQPENNYKTTPPVLDSDGSFFLYSKLTVDKSRWQQGNVFSCSVMHEALHNHYTQKSLSLSPGK
B5: TACI-9-11-Fc (Fc fusion)
chain: SLSCSEEQGEFYDHLLRDCISCASICGQHPKQCAYFCENKLDKTHTCPPCPAPEAEGAPSVFLFPPKPKDTLMISRTPEVTCVVVDVSHEDPEVKFNWYVDGVEVHNAKTKPREEQYNSTYRVVSVLTVLHQDWLNGKEYKCKVSNKALPSSIEKTISKAKGQPREPQVYTLPPSRDELTKNQVSLTCLVKGFYPSDIAVEWESNGQPENNYKTTPPVLDSDGSFFLYSKLTVDKSRWQQGNVFSCSVMHEALHNHYTQKSLSLSPGK
B6: TACI-9-8-Fc (Fc fusion)
chain: SLSCRKEQGKFYDHLLRDCISCASICGQHPKQCAAFCENKLDKTHTCPPCPAPEAEGAPSVFLFPPKPKDTLMISRTPEVTCVVVDVSHEDPEVKFNWYVDGVEVHNAKTKPREEQYNSTYRVVSVLTVLHQDWLNGKEYKCKVSNKALPSSIEKTISKAKGQPREPQVYTLPPSRDELTKNQVSLTCLVKGFYPSDIAVEWESNGQPENNYKTTPPVLDSDGSFFLYSKLTVDKSRWQQGNVFSCSVMHEALHNHYTQKSLSLSPGK
B7: TACI-9-12-Fc (Fc fusion)
chain: STSCRKEQGKFYDHLLRDCISCASICGQHPKQCAAFCENKLDKTHTCPPCPAPEAEGAPSVFLFPPKPKDTLMISRTPEVTCVVVDVSHEDPEVKFNWYVDGVEVHNAKTKPREEQYNSTYRVVSVLTVLHQDWLNGKEYKCKVSNKALPSSIEKTISKAKGQPREPQVYTLPPSRDELTKNQVSLTCLVKGFYPSDIAVEWESNGQPENNYKTTPPVLDSDGSFFLYSKLTVDKSRWQQGNVFSCSVMHEALHNHYTQKSLSLSPGK
B8: TACI-9-6-Fc (Fc fusion)
chain: SRSCRKEQGKFYDHLLRTCISCASICGQHPKQCAYFCENKLDKTHTCPPCPAPEAEGAPSVFLFPPKPKDTLMISRTPEVTCVVVDVSHEDPEVKFNWYVDGVEVHNAKTKPREEQYNSTYRVVSVLTVLHQDWLNGKEYKCKVSNKALPSSIEKTISKAKGQPREPQVYTLPPSRDELTKNQVSLTCLVKGFYPSDIAVEWESNGQPENNYKTTPPVLDSDGSFFLYSKLTVDKSRWQQGNVFSCSVMHEALHNHYTQKSLSLSPGK
B9: TACI-9-13-Fc (Fc fusion)
chain: STSCRKEQGKFYDHLLRDCISCASICGQHPKQCAYYCENKLDKTHTCPPCPAPEAEGAPSVFLFPPKPKDTLMISRTPEVTCVVVDVSHEDPEVKFNWYVDGVEVHNAKTKPREEQYNSTYRVVSVLTVLHQDWLNGKEYKCKVSNKALPSSIEKTISKAKGQPREPQVYTLPPSRDELTKNQVSLTCLVKGFYPSDIAVEWESNGQPENNYKTTPPVLDSDGSFFLYSKLTVDKSRWQQGNVFSCSVMHEALHNHYTQKSLSLSPGK
B10: TACI-9-5-Fc (Fc fusion)
chain: SLSCRKEQGEFYDHLLRDCISCASICGQHPKQCAYFCENKLDKTHTCPPCPAPEAEGAPSVFLFPPKPKDTLMISRTPEVTCVVVDVSHEDPEVKFNWYVDGVEVHNAKTKPREEQYNSTYRVVSVLTVLHQDWLNGKEYKCKVSNKALPSSIEKTISKAKGQPREPQVYTLPPSRDELTKNQVSLTCLVKGFYPSDIAVEWESNGQPENNYKTTPPVLDSDGSFFLYSKLTVDKSRWQQGNVFSCSVMHEALHNHYTQKSLSLSPGK
B11: TACI-9-4-Fc (Fc fusion)
chain: SLSCRQEQGKFYDHLLRDCISCASICGQHPKQCAYFCENKLDKTHTCPPCPAPEAEGAPSVFLFPPKPKDTLMISRTPEVTCVVVDVSHEDPEVKFNWYVDGVEVHNAKTKPREEQYNSTYRVVSVLTVLHQDWLNGKEYKCKVSNKALPSSIEKTISKAKGQPREPQVYTLPPSRDELTKNQVSLTCLVKGFYPSDIAVEWESNGQPENNYKTTPPVLDSDGSFFLYSKLTVDKSRWQQGNVFSCSVMHEALHNHYTQKSLSLSPGK
B12: TACI-9-15-Fc (Fc fusion)
chain: STSCREEQGEFYDHLLRDCISCASICGQHPKQCAAFCENKLDKTHTCPPCPAPEAEGAPSVFLFPPKPKDTLMISRTPEVTCVVVDVSHEDPEVKFNWYVDGVEVHNAKTKPREEQYNSTYRVVSVLTVLHQDWLNGKEYKCKVSNKALPSSIEKTISKAKGQPREPQVYTLPPSRDELTKNQVSLTCLVKGFYPSDIAVEWESNGQPENNYKTTPPVLDSDGSFFLYSKLTVDKSRWQQGNVFSCSVMHEALHNHYTQKSLSLSPGK
B13: TACI-9-7-Fc (Fc fusion)
chain: SRSCRKEQGKFYDHLLRACISCASICGQHPKQCAYFCENKLDKTHTCPPCPAPEAEGAPSVFLFPPKPKDTLMISRTPEVTCVVVDVSHEDPEVKFNWYVDGVEVHNAKTKPREEQYNSTYRVVSVLTVLHQDWLNGKEYKCKVSNKALPSSIEKTISKAKGQPREPQVYTLPPSRDELTKNQVSLTCLVKGFYPSDIAVEWESNGQPENNYKTTPPVLDSDGSFFLYSKLTVDKSRWQQGNVFSCSVMHEALHNHYTQKSLSLSPGK
B14: TACI-9-9-Fc (Fc fusion)
chain: SRSCRKEQGKFYDHLLRTCISCASICGQHPKQCARFCENKLDKTHTCPPCPAPEAEGAPSVFLFPPKPKDTLMISRTPEVTCVVVDVSHEDPEVKFNWYVDGVEVHNAKTKPREEQYNSTYRVVSVLTVLHQDWLNGKEYKCKVSNKALPSSIEKTISKAKGQPREPQVYTLPPSRDELTKNQVSLTCLVKGFYPSDIAVEWESNGQPENNYKTTPPVLDSDGSFFLYSKLTVDKSRWQQGNVFSCSVMHEALHNHYTQKSLSLSPGK
B15: TACI-9-14-Fc (Fc fusion)
chain: STSCRKEQGKFYDHLLRDCISCASICGQHPKQCAAYCENKLDKTHTCPPCPAPEAEGAPSVFLFPPKPKDTLMISRTPEVTCVVVDVSHEDPEVKFNWYVDGVEVHNAKTKPREEQYNSTYRVVSVLTVLHQDWLNGKEYKCKVSNKALPSSIEKTISKAKGQPREPQVYTLPPSRDELTKNQVSLTCLVKGFYPSDIAVEWESNGQPENNYKTTPPVLDSDGSFFLYSKLTVDKSRWQQGNVFSCSVMHEALHNHYTQKSLSLSPGK

Biological target: T1, BAFF (Sino biological, 10056-HNCH) (UniProt Q9Y275 134-285, biotinylated in the blocking ELISA (site not stated))
T1 construct: also called BLyS
T1 sequence (Q9Y275 134-285 limits assumed): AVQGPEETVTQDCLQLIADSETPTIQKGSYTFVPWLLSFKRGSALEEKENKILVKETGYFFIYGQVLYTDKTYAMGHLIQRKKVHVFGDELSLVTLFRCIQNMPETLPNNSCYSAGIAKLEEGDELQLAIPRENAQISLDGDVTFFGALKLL
Assay: ELISA, BAFF coated at 1 ug/mL, anti-human IgG-HRP
Protocol: The BAFF binding activity of the TACI-Fc fusion proteins was assessed as follows: BAFF (Sino biological, 10056-HNCH) protein was diluted with a pH 7.4 PBS (BasalMedia, B320) buffer to 1 μg/mL, and the resulting dilution was added to a 96-well microplate (Corning, 3590) at 100 μL/well. The plate was incubated overnight at 4° C. After the liquid was discarded, 5% skim milk (BD, 232100), diluted with PBS, was added at 300 μL/well for blocking, and the plate was incubated at 37° C. for 2 h. After the blocking, the blocking solution was discarded, and the plate was washed 3 times with a PBST buffer (pH 7.4 PBS containing 0.10% tween-20). Serially diluted test antibody or fusion protein solutions were added at 100 μL/well, and the plate was incubated at 37° C. for 1 h. […] The plate was incubated at 37° C. for 1 h. After the plate was washed 3 times with PBST, the chromogenic substrate TMB (KPL, 5120-0077) was added at 100 μL/well. The plate was incubated at room temperature for 10-15 min, and 1 M H₂SO₄ was added at 50 μL/well to stop the reaction. The absorbance at 450 nm was measured using a microplate reader. Curves for the binding of the antibodies to the antigen were fitted using software, and EC₅₀ values were calculated.
The BAFF binding activity of the constructed TACI-Fc fusion proteins was assessed (see Example 2 for the experimental method), and the results are shown in Table 3: […]

Binder	EC50
B1	0.382 nM
B2	0.279 nM
B3	0.265 nM
B4	0.12 nM
B5	0.195 nM
B6	0.2 nM
B7	0.122 nM
B8	0.367 nM
B9	0.433 nM
B10	0.146 nM
B11	0.469 nM
B12	0.0869 nM
B13	0.727 nM
B14	0.937 nM
B15	0.223 nM
